According to the supplement of paper PMC10598134:
± gives the standard deviation.

Experiment: collision cross section of modified peptide (TIMS, N2, iRT-aligned); higher = larger / more extended gas-phase ion
Outline: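 Collision cross section was derived from the Mason-Schamp equation. Each value averages 1–3 technical replicates of the most abundant feature per charge state, measured on a timsTOF Pro/HT in dda-PASEF mode (nitrogen, ~2.4 mbar) after a 120-min nanoflow C18 gradient at 60 °C. Synthetic peptide pools (~100 fmol/µL in 2% acetonitrile/0.1% formic acid, iRT standard spiked 1:40) were identified with MaxQuant, and 1/K0 was calibrated with three reference ions and aligned run-wise to the median iRT peptide deviation.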

[1] = charge state: 2, modification: Succinyl
[2] = charge state: 2, modification: Phospho (Y)
[3] = charge state: 3, modification: Citrullination (R)
[4] = charge state: 2, modification: Methyl (K)
[5] = charge state: 3, modification: Methyl (K)
[6] = charge state: 2, modification: Citrullination (R)
[7] = charge state: 2, modification: HexNAc (ST)
[8] = charge state: 2, modification: Dimethyl (K)
[9] = charge state: 3, modification: Dimethyl (K)
[10] = charge state: 2, modification: Glutarylation
[11] = charge state: 2, modification: Trimethyl (K)
[12] = charge state: 3, modification: Trimethyl (K)
[13] = charge state: 2, modification: Acetyl (K)
[14] = charge state: 2, modification: Butyryl
[15] = charge state: 3, modification: Propionyl
[16] = charge state: 2, modification: Nitro (Y)
[17] = charge state: 2, modification: Biotin
[18] = charge state: 3, modification: Acetyl (K)
[19] = charge state: 2, modification: Propionyl
[20] = charge state: 2, modification: Crotonyl
[21] = charge state: 2, modification: hydroxyisobutyryl
[22] = charge state: 3, modification: Biotin
[23] = charge state: 2, modification: Formyl
[24] = charge state: 3, modification: Formyl
[25] = charge state: 3, modification: Succinyl
[26] = charge state: 2, modification: GlyGly (K)
[27] = charge state: 3, modification: GlyGly (K)
[28] = charge state: 3, modification: Crotonyl
[29] = charge state: 2, modification: Malonyl

GSLGAQKLANTCFNEIEK [_GSLGAQK(Succinyl)LANTCFNEIEK_]
collision cross section [1]: 470.21 ± 0.66 Å²

CSVLAAANPVYGR [_CSVLAAANPVY(Phospho (Y))GR_]
collision cross section [2]: 407.91 ± 1.2 Å²

HFGPVPPSQGRGR [_HFGPVPPSQGR(Citrullination (R))GR_]
collision cross section [3]: 445.8 Å²

YEEIVKEVSTYIK [_YEEIVK(Methyl (K))EVSTYIK_]
collision cross section [4]: 440.62 ± 1.8 Å²
collision cross section [5]: 492.07 ± 3.2 Å²

SGGGYGGDRGGGYGGDR [_SGGGYGGDR(Citrullination (R))GGGYGGDR_]
collision cross section [6]: 393.58 ± 0.28 Å²
collision cross section [3]: 470.6 ± 4.1 Å²

SSSAGGQGSYVPLLR [_SSS(HexNAc (ST))AGGQGSYVPLLR_]
collision cross section [7]: 427.89 ± 0.57 Å²

PASGAGAGAGAGKR [_PASGAGAGAGAGK(Dimethyl (K))R_]
collision cross section [8]: 385.92 ± 1.6 Å²
collision cross section [9]: 457.59 ± 1.6 Å²

VNALKNLQVK [_VNALK(Gluratylation)NLQVK_]
collision cross section [10]: 376.79 ± 0.1 Å²

LQEKVESAQSEQK [_LQEK(Trimethyl (K))VESAQSEQK_]
collision cross section [11]: 419.24 ± 2.2 Å²
collision cross section [12]: 470.87 ± 1.8 Å²

DHLSDKESK [_DHLSDK(Dimethyl (K))ESK_]
collision cross section [8]: 344.63 ± 1.5 Å²
collision cross section [9]: 408.73 ± 0.56 Å²

LTEKELAEAASK [_LTEK(Acetyl (K))ELAEAASK_]
collision cross section [13]: 387.12 ± 0.45 Å²

SKLLFSNTAAQK [_SK(Butyryl)LLFSNTAAQK_]
collision cross section [14]: 402.3 ± 1.3 Å²

PANEKATDDYHYEK [_PANEK(Propionyl)ATDDYHYEK_]
collision cross section [15]: 507.47 ± 0.5 Å²

FNALFAQGNYSEAAK [_FNALFAQGNY(Nitro (Y))SEAAK_]
collision cross section [16]: 433.45 ± 0.55 Å²

LDHLAEKFR [_LDHLAEK(Butyryl)FR_]
collision cross section [14]: 377.54 ± 1.3 Å²
collision cross section (charge state: 3, modification: Butyryl): 440.5 ± 3.8 Å²

VNALKNLQVK [_VNALK(Biotin)NLQVK_]
collision cross section [17]: 393.86 ± 0.23 Å²

PASGAGAGAGAGKR [_PASGAGAGAGAGK(Acetyl (K))R_]
collision cross section [13]: 357.24 ± 1 Å²
collision cross section [18]: 456.58 ± 2.9 Å²

GTVPDDAVEALADSLGKK [_GTVPDDAVEALADSLGK(Acetyl (K))K_]
collision cross section [13]: 449.76 ± 3.1 Å²
collision cross section [18]: 527.69 ± 0.69 Å²

PRGVISTPVIR [_PR(Citrullination (R))GVISTPVIR_]
collision cross section [6]: 367.21 ± 0.24 Å²
collision cross section [3]: 478.04 Å²

IVSGKDYNVTANSK [_IVSGK(Trimethyl (K))DYNVTANSK_]
collision cross section [11]: 419.62 ± 1.6 Å²
collision cross section [12]: 475.29 ± 2.4 Å²

LRQQLQAK [_LR(Methyl (R))QQLQAK_]
collision cross section (charge state: 2, modification: Methyl (R)): 356.39 ± 9.6 Å²
collision cross section (charge state: 3, modification: Methyl (R)): 413.25 ± 2 Å²

VELCSFSGYK [_VELCSFSGY(Nitro (Y))K_]
collision cross section [16]: 364.52 ± 0.72 Å²

VDGDTQTTVEK [_VDGDTQTT(HexNAc (ST))VEK_]
collision cross section [7]: 383.53 ± 0.58 Å²

LLIVSTTPYSEKDTK [_LLIVSTTPYSEK(Propionyl)DTK_]
collision cross section [19]: 452.01 Å²

AYILNLVK [_AY(Nitro (Y))ILNLVK_]
collision cross section [16]: 333.68 ± 0.72 Å²

IINEPTAAAIAYGLDKK [_IINEPTAAAIAYGLDK(Trimethyl (K))K_]
collision cross section [11]: 500.2 ± 1.5 Å²
collision cross section [12]: 559.85 ± 0.91 Å²

KFGVLSDNFK [_K(Crotonyl)FGVLSDNFK_]
collision cross section [20]: 376.47 ± 0.8 Å²

ALLQAKASGK [_ALLQAK(Methyl (K))ASGK_]
collision cross section [4]: 342.45 ± 0.79 Å²
collision cross section [5]: 423.28 ± 5 Å²

ISALQGKLSK [_ISALQGK(Propionyl)LSK_]
collision cross section [19]: 357.21 ± 0.33 Å²

DYSSGFGGKYGVQADR [_DYSSGFGGK(Methyl (K))YGVQADR_]
collision cross section [4]: 432 Å²
collision cross section [5]: 489.11 ± 2.4 Å²

PGGEGPQCEKTTDVK [_PGGEGPQCEK(hydroxyisobutyryl)TTDVK_]
collision cross section [21]: 425.58 ± 0.3 Å²
collision cross section (charge state: 3, modification: hydroxyisobutyryl): 464.88 Å²

GFALVGVGSEASSKK [_GFALVGVGSEASSK(Biotin)K_]
collision cross section [17]: 423.88 ± 1.4 Å²
collision cross section [22]: 494.71 ± 0.97 Å²

SKLLFSNTAAQK [_SK(Formyl)LLFSNTAAQK_]
collision cross section [23]: 390.83 ± 0.41 Å²

DAEAAEATAEGALKAEK [_DAEAAEATAEGALK(Biotin)AEK_]
collision cross section [17]: 451.86 Å²
collision cross section [22]: 551.51 Å²

LDHLAEKFR [_LDHLAEK(Formyl)FR_]
collision cross section [23]: 364.92 ± 0.89 Å²
collision cross section [24]: 435.6 ± 2.1 Å²

IQTKAGEATVK [_IQTK(hydroxyisobutyryl)AGEATVK_]
collision cross section [21]: 374.42 ± 0.28 Å²

VGADGTVFATR [_VGADGTVFAT(HexNAc (ST))R_]
collision cross section [7]: 366.62 ± 0.59 Å²

LLEQKTQESQK [_LLEQK(Formyl)TQESQK_]
collision cross section [23]: 386.78 ± 0.55 Å²

IQTKAGEATVK [_IQTK(Gluratylation)AGEATVK_]
collision cross section [10]: 370.55 ± 0.62 Å²

GEYFGEK [_GEY(Nitro (Y))FGEK_]
collision cross section [16]: 309.86 ± 0.71 Å²

VDIDVPDVNIEGPDAKLK [_VDIDVPDVNIEGPDAK(Succinyl)LK_]
collision cross section [1]: 479.51 ± 1 Å²
collision cross section [25]: 508.07 ± 2 Å²

ALLQAKASGK [_ALLQAK(Propionyl)ASGK_]
collision cross section [19]: 350.75 ± 0.49 Å²

GETASKLQSEISR [_GETASK(GlyGly (K))LQSEISR_]
collision cross section [26]: 415.57 ± 0.85 Å²
collision cross section [27]: 455.84 ± 1.3 Å²

LQEKVESAQSEQK [_LQEK(Formyl)VESAQSEQK_]
collision cross section [23]: 410.52 ± 1.2 Å²
collision cross section [24]: 496.47 ± 0.53 Å²

GGPGSTLSFVGKR [_GGPGSTLSFVGK(Dimethyl (K))R_]
collision cross section [8]: 393.41 ± 0.79 Å²
collision cross section [9]: 425.47 ± 2 Å²

GAEKTEVAEPR [_GAEK(Formyl)TEVAEPR_]
collision cross section [23]: 371.26 ± 0.89 Å²

PPGFSPFRSSR [_PP(Hydroxyproline)GFSPFRSSR_]
collision cross section (charge state: 2, modification: Hydroxyproline): 367.16 Å²
collision cross section (charge state: 3, modification: Hydroxyproline): 458.87 ± 0.35 Å²

VNVEAPDVNLEGLGGKLK [_VNVEAPDVNLEGLGGK(Acetyl (K))LK_]
collision cross section [13]: 460.53 ± 2.8 Å²
collision cross section [18]: 542.09 Å²

IVEKYGYTHLSAGELLR [_IVEK(GlyGly (K))YGYTHLSAGELLR_]
collision cross section [27]: 548.84 ± 0.37 Å²

IFDSEEILAGYK [_IFDSEEILAGY(Nitro (Y))K_]
collision cross section [16]: 395.88 ± 0.18 Å²

FTEYETQVK [_FTEY(Phospho (Y))ETQVK_]
collision cross section [2]: 359.15 ± 0.75 Å²

ASAISIKLGSSK [_ASAISIK(GlyGly (K))LGSSK_]
collision cross section [26]: 390.99 ± 1 Å²

GGPGSTLSFVGKR [_GGPGSTLSFVGK(Succinyl)R_]
collision cross section [1]: 387.5 ± 0.76 Å²
collision cross section [25]: 434.26 Å²

APVGSVVSVPSQSSASSDK [_APVGSVVSVPSQS(HexNAc (ST))SASSDK_]
collision cross section [7]: 464.2 ± 0.14 Å²

GFALVGVGSEASSKK [_GFALVGVGSEASSK(Crotonyl)K_]
collision cross section [20]: 448.38 ± 0.94 Å²
collision cross section [28]: 499.08 ± 1.9 Å²

AGPNASIISLKSDK [_AGPNASIISLK(Malonyl)SDK_]
collision cross section [29]: 411.98 ± 0.71 Å²

ASNAAVKLAESK [_ASNAAVK(hydroxyisobutyryl)LAESK_]
collision cross section [21]: 376.83 ± 0.8 Å²

VGIDTPDIDIHGPEGKLK [_VGIDTPDIDIHGPEGK(Crotonyl)LK_]
collision cross section [20]: 496.91 Å²
collision cross section [28]: 540.02 ± 1.3 Å²

TTEETSKPK [_TTEETSK(Butyryl)PK_]
collision cross section [14]: 338.9 ± 1.2 Å²

GSLGAQKLANTCFNEIEK [_GSLGAQK(Acetyl (K))LANTCFNEIEK_]
collision cross section [13]: 470.8 Å²

SPDEAYAIAKK [_SPDEAYAIAK(Propionyl)K_]
collision cross section [19]: 373.53 ± 0.94 Å²
collision cross section [15]: 448.43 ± 0.74 Å²

DYSAPVNFISAGLKK [_DYSAPVNFISAGLK(Formyl)K_]
collision cross section [23]: 433.25 ± 0.72 Å²
collision cross section [24]: 526.56 ± 0.68 Å²

YTQVGPDHNR [_Y(Nitro (Y))TQVGPDHNR_]
collision cross section [16]: 361.98 ± 1.1 Å²
collision cross section (charge state: 3, modification: Nitro (Y)): 411.69 ± 0.22 Å²

CSVLAAANPVYGR [_CSVLAAANPVY(Nitro (Y))GR_]
collision cross section [16]: 387.22 ± 0.17 Å²

VFSIISSEKELK [_VFSIISSEK(Malonyl)ELK_]
collision cross section [29]: 409.68 ± 0.66 Å²

DSLGVSFPEELACK [_DSLGVS(HexNAc (ST))FPEELACK_]
collision cross section [7]: 437.05 Å²

HELQANCYEEVKDR [_HELQANCYEEVK(Formyl)DR_]
collision cross section [24]: 490.46 Å²

SSFAYKDQNENR [_SSFAYK(Dimethyl (K))DQNENR_]
collision cross section [8]: 406.82 ± 0.47 Å²
collision cross section [9]: 455.28 ± 0.51 Å²

TEVLSPNSKVESK [_TEVLSPNSK(Gluratylation)VESK_]
collision cross section [10]: 408.15 ± 0.5 Å²
collision cross section (charge state: 3, modification: Glutarylation): 453.95 ± 1.7 Å²
